For assay [1], the target named is soluble CD28 (sCD28), human CD28 extracellular domain fused to His6-tagged human IgG1 Fc (human) (UniProt P10747). Description: SPR, format not stated (sCD28 was among the immobilized ligands). A general note: Surface plasmon resonance follows binding to a sensor surface in real time, without labels.
Assay [2] addresses staphylococcal enterotoxin B (SEB) (Staphylococcus aureus) (UniProt P01552). Description: SPR (BIAcore 3000, 25°C), SEB immobilized on CM5 chip, sB7-2 injected.
Assay [3] deals with T1, staphylococcal enterotoxin B (SEB) (Staphylococcus aureus, UniProt P01552 28-266).
T1 sequence: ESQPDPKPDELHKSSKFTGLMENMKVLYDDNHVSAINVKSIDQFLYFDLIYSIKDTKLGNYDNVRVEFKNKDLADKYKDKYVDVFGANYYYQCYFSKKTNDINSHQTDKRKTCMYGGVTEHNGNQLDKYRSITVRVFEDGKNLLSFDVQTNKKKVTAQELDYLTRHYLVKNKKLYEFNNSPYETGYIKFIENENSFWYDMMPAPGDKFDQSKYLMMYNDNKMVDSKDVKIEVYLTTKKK
Description: SPR (BIAcore 3000, 25°C), SEB immobilized on CM5 chip, soluble receptor injected.

For three molecules, Kd results are on record in EP2363413A1 (YISSUM RESEARCH DEVELOPMENT COMPANY OF THE HEBREW …, dated 2011).

A word on the Kd: it is the concentration at which binding is half-saturated. Read a high Kd as weaker binding.

In assay [1], “anti-CD28 monoclonal antibody MAB342, clone 37407.111 (R&D Systems)” yielded a Kd of 2 nM.

For “soluble B7-2 (sB7-2), human B7-2 extracellular domain fused to His6-tagged human IgG1 Fc (from UniProt P42081 20-239) (Fc fusion)”, the Kd in assay [2] stood at 25 nM.

B1: soluble ICOS (sICOS), human ICOS extracellular domain fused to His6-tagged human IgG1 Fc (Fc fusion)
chain (part 1 of 2): EINGSANYEMFIFHNGGVQILCKYPDIVQQFKMQLLKGGQILCDLTKTKGSGNTVSIKSLKFCHSQLSNNSVSFFLYNLDHSHANYYFCNLSIFDPPPFKVTLTGGYLHIYESQLCCQLKF
chain (part 2 of 2): HHHHHH
notes: range 21-141
B1 returned an equilibrium dissociation constant (Kd) in assay [3] of 21 nM.
